The values that follow come from paper PMC12191924, “A new naphthalene-based fluorogenic substrate for cytochrome P450 4A11” (Biochemical Journal, 2025).

In one data set the target is T1, CYP4A11 (Homo sapiens, UniProt Q02928).
T1 sequence (Q02928 5-519): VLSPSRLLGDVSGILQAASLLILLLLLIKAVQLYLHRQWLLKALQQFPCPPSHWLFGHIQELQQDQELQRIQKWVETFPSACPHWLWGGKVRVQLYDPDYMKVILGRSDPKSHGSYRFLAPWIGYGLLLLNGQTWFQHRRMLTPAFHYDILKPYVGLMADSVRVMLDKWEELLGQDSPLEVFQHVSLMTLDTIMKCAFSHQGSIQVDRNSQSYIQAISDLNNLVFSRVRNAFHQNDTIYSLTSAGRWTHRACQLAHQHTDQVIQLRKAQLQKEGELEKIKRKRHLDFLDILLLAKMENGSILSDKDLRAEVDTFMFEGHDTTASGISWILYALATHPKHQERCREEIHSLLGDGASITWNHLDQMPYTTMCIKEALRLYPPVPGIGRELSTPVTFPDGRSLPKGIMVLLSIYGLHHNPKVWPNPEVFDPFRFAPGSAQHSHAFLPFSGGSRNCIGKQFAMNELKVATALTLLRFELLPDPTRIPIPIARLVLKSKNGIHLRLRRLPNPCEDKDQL
As to the kind of experiment: Probing 6-methoxy-2-naphthoic acid as a P450 substrate (data not shown). It is filed as biochemical. The source says:
(§1) Thus, we decided to probe the derivatives of methoxynaphthalene as CYP4A11 substrates. The simplest potential methoxynaphthalene-based P450 substrate is 6-methoxy-2-naphthoic acid, a close analog of naproxen, which is known to be metabolized by P450 enzymes. […] This molecule is apparently too small to be a CYP4A11 substrate. Thus, we searched commercially available derivatives of methoxynaphthalene to find a compound with a longer carboxylic acid chain substituent in the naphthalene ring. This search identified MONACRA (Figure 1) as a potential CYP4A11 substrate. […] We attempted to design a fluorimetric assay of its metabolism suitable for high-throughput studies in HLM.

Another data set has as its target T2, CYP1A2 (Homo sapiens, UniProt P05177).
T2 sequence (P05177 1-516): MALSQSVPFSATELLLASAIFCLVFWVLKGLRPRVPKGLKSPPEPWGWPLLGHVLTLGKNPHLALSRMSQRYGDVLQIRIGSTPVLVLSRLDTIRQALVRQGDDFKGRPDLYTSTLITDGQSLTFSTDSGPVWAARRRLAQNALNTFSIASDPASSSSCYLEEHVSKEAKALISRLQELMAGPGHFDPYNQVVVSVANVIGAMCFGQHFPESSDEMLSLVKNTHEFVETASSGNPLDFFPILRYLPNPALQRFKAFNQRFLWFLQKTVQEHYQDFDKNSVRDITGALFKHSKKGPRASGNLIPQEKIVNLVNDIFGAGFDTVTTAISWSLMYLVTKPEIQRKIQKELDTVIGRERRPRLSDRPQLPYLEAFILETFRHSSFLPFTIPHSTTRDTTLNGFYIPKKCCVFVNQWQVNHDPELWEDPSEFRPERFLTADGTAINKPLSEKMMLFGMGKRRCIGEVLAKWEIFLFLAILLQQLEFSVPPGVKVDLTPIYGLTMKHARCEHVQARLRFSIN
It is filed as biochemical.
From the text: as §1

Substrate in data set [1]: COc1ccc2cc(C=CC(=O)O)ccc2c1
As to the kind of experiment: MONACRA demethylation by recombinant CYP2C8 in Supersomes, high-throughput fluorimetric assay. It counts as biochemical, human. The conditions noted are these: other: CYP2C8 Supersomes; Michaelis–Menten fit. The procedure:
(§2) Based on these observations, we developed a high-throughput automated assay applicable for studying SSPs of MONACRA metabolism by microsomal P450 enzymes. In this procedure, the incubation mixtures containing an NADPH-generating system and various substrate concentrations are placed in a multiwell plate and preincubated at 30°C in a thermostated shaker. The reaction is started by adding microsomal suspension to the final concentration of 0.3–1 mg/ml of microsomal protein or 0.02–0.1 µM of recombinant P450 enzymes in Supersomes. Following the incubation for 20 min at 30°C, the reaction is quenched by adding trichloroacetic acid (final concentration […]). After supplementing the wells with Na-glycine buffer (pH 10.4, final concentration 2.1 M), the plates are subjected to scanning the fluorescence spectra with excitation at 375 nm. This assay, which is described in detail in Materials and Methods, allows reliable detection of the concentrations of HONACRA as low as 0.1 µM.
(§3) We used the high-throughput activity assay described above to probe MONACRA metabolism by 16 human microsomal P450 enzymes, namely CYP1A2, CYP2A6, CYP2B6, CYP2C8, CYP2C9, CYP2C19, CYP2D6, CYP2E1, CYP2J2, CYP3A4, CYP3A5, CYP4A11, CYP4F2, CYP4F3A, CYP4F3B, and CYP4F12. […]

Substrate in data set [2]: COc1ccc2cc(C=CC(=O)O)ccc2c1
As to the kind of experiment: MONACRA demethylation by recombinant CYP1A2 in Supersomes, high-throughput fluorimetric assay. It counts as biochemical, human. As to conditions: other: CYP1A2 Supersomes; substrate inhibition equation; ± = confidence interval P=0.05. Here is the method: as §2, §3

As for `COc1ccc2cc(C(=O)O)ccc2c1` [6-methoxy-2-naphthoic acid], the “metabolism by CYP4A11” value at CYP4A11 is on record as “not metabolized by CYP4A11”. At CYP1A2, the “O-demethylation by P450 enzymes” value was “undergoes O-demethylation catalyzed predominantly by CYP1A2”.

B1: CYP2C8 (Homo sapiens) (protein)
chain: MEPFVVLVLCLSFMLLFSLWRQSCRRRKLPPGPTPLPIIGNMLQIDVKDICKSFTNFSKVYGPVFTVYFGMNPIVVFHGYEAVKEALIDNGEEFSGRGNSPISQRITKGLGIISSNGKRWKEIRRFSLTTLRNFGMGKRSIEDRVQEEAHCLVEELRKTKASPCDPTFILGCAPCNVICSVVFQKRFDYKDQNFLTLMKRFNENFRILNSPWIQVCNNFPLLIDCFPGTHNKVLKNVALTRSYIREKVKEHQASLDVNNPRDFIDCFLIKMEQEKDNQKSEFNIENLVGTVADLFVAGTETTSTTLRYGLLLLLKHPEVTAKVQEEIDHVIGRHRSPCMQDRSHMPYTDAVVHEIQRYSDLVPTGVPHAVTTDTKFRNYLIPKGTTIMALLTSVLHDDKEFPNPNIFDPGHFLDKNGNFKKSDYFMPFSAGKRICAGEGLARMELFLFLTTILQNFNLKSVDDLKNLNTTAVTKGIVSLPPSYQICFIPV
notes: purchased Gentest (Huntsville, AL), now a part of Discovery Life Sciences lot 81760; host or cells: insect cells, recombinant baculovirus
Broadly, the Km is the concentration of substrate that gives half-maximal velocity. As a reminder, the kcat is the number of substrate molecules converted per active site and unit of time at saturation. Consider B1, for which, in data set [1], the Michaelis constant (Km) is 456 ± 188 µM and the kcat is 0.0267 ± 0.0117 s⁻¹.

B2: CYP1A2 (Homo sapiens) (protein)
chain: ALSQSVPFSATELLLASAIFCLVFWVLKGLRPRVPKGLKSPPEPWGWPLLGHVLTLGKNPHLALSRMSQRYGDVLQIRIGSTPVLVLSRLDTIRQALVRQGDDFKGRPDLYTSTLITDGQSLTFSTDSGPVWAARRRLAQNALNTFSIASDPASSSSCYLEEHVSKEAKALISRLQELMAGPGHFDPYNQVVVSVANVIGAMCFGQHFPESSDEMLSLVKNTHEFVETASSGNPLDFFPILRYLPNPALQRFKAFNQRFLWFLQKTVQEHYQDFDKNSVRDITGALFKHSKKGPRASGNLIPQEKIVNLVNDIFGAGFDTVTTAISWSLMYLVTKPEIQRKIQKELDTVIGRERRPRLSDRPQLPYLEAFILETFRHSSFLPFTIPHSTTRDTTLNGFYIPKKCCVFVNQWQVNHDPELWEDPSEFRPERFLTADGTAINKPLSEKMMLFGMGKRRCIGEVLAKWEIFLFLAILLQQLEFSVPPGVKVDLTPIYGLTMKHARCEHVQARLRFSIN
notes: purchased Gentest (Supersomes), now a part of Discovery Life Sciences; CYP1A2 is not in the lot list; host or cells: insect cells, recombinant baculovirus
On to B2, for which, in data set [2], the Km stood at 161 ± 34 µM and the kcat was determined as 0.733 ± 0.1 s⁻¹.
